B2: STAT1 (other, human, UniProt P42224 2-750, looked up)
chain: SQWYELQQLDSKFLEQVHQLYDDSFPMEIRQYLAQWLEKQDWEHAANDVSFATIRFHDLLSQLDDQYSRFSLENNFLLQHNIRKSKRNLQDNFQEDPIQMSMIIYSCLKEERKILENAQRFNQAQSGNIQSTVMLDKQKELDSKVRNVKDKVMCIEHEIKSLEDLQDEYDFKCKTLQNREHETNGVAKSDQKQEQLLLKKMYLMLDNKRKEVVHKIIELLNVTELTQNALINDELVEWKRRQQSACIGGPPNACLDQLQNWFTIVAESLQQVRQQLKKLEELEQKYTYEHDPITKNKQVLWDRTFSLFQQLIQSSFVVERQPCMPTHPQRPLVLKTGVQFTVKLRLLVKLQELNYNLKVKVLFDKDVNERNTVKGFRKFNILGTHTKVMNMEESTNGSLAAEFRHLQLKEQKNAGTRTNEGPLIVTEELHSLSFETQLCQPGLVIDLETTSLPVVVISNVSQLPSGWASILWYNMLVAEPRNLSFFLTPPCARWAQLSEVLSWQFSSVTKRGLNVDQLNMLGEKLLGPNASPDGLIPWTRFCKENINDKNFPFWLWIESILELIKKHLLPLWNDGCIMGFISKERERALLKDQQPGTFLLRFSESSREGAITFTWVERSQNGGEPDFHAVEPYTKKELSAVTFPDIIRNYKVMAAENIPENPLKYLYPNIDKDHAFGKYYSRPKEAPEPMELDGPKGTGYIKTELISVSEVHPSRLQTTDNLLPMSPEEFDEVSRIVGSVEFDSMMNTV
notes: Cells were stimulated with IFN; also called endogenous STAT1

Legend:
STAT1/STAT2 heterodimer [1] = target: T1, STAT1/STAT2 heterodimer (human, UniProt P42224 2-750; P52630 1-851); assay: co-IP of endogenous proteins after IFNα treatment (FIG. 8A, 9A, 9B)
T1 construct: It was inferred from co-IP after IFNα treatment and was not purified; also called STAT2/STAT1 heterodimer
Procedure: (§1) For extraction of nuclear and cytoplasmic proteins from cells, NE-PER Nuclear and Cytoplasmic Extraction Kit (# 78835, Thermo Fisher Scientific) was used according to the manufacturer's instructions. IP buffer (50 mM Tris-HCl pH7.5, 150 mM NaCl, 1% NP40, 0.5% Sodium Deoxycholate) was used to extract whole cell lysate. P rotein A/G agarose (# 20421, Thermo Fisher Scientific) was used for immunoprecipitation of FOXA1 (# ab23738, Abcam) and Flag-tag (dilution 1:1000; # F1804, Sigma-Aldrich). Monoclonal anti-HA agarose (# A2095, Sigma-Aldrich) was used for HA-tag Co-IP. For glutathione-S-transferase (GST) pulldown assay, GST-tagged STAT2 fragment expressed at E. coli was purified by Glutathione Sepharose 4B beads (# 84-239, Genesee Scientific) and incubated with lysate from 293T cells expressing interested proteins, and GST pulldown assays were performed. For protein co-IP, samples eluted in IP butter were incubated with agarose beads and antibodies overnight at 4° C. and washed with 6 times with IP buffer in the following day. Samples were boiled for 10 minutes in 50 μl sample buffer (2% SDS, 10% glycerol, 10% β-mercaptoethanol, bromophenol blue and Tris-HCl, pH 6.8) and subjected to Western blotting.

STAT2 [2] = target: T2, STAT2 (human, UniProt P52630 1-851); assay: co-IP of endogenous proteins in LNCaP cells (FIG. 8A)
T2 construct: also called endogenous STAT2
Procedure: as §1

STAT1 = target: B2; assay: co-IP of endogenous proteins, nuclear fraction (FIG. 8A, 9A, 9B)
Procedure: as §1

STAT1 homodimer = target: T3, STAT1 homodimer (human, UniProt P42224 2-750); assay: co-IP of endogenous proteins after IFNγ treatment (FIG. 8A, 9A, 9B)
T3 construct: It was inferred from co-IP after IFNγ treatment and was not purified; also called STAT1/STAT1 homodimer; STAT1-STAT1 complex
T3 sequence (looked up): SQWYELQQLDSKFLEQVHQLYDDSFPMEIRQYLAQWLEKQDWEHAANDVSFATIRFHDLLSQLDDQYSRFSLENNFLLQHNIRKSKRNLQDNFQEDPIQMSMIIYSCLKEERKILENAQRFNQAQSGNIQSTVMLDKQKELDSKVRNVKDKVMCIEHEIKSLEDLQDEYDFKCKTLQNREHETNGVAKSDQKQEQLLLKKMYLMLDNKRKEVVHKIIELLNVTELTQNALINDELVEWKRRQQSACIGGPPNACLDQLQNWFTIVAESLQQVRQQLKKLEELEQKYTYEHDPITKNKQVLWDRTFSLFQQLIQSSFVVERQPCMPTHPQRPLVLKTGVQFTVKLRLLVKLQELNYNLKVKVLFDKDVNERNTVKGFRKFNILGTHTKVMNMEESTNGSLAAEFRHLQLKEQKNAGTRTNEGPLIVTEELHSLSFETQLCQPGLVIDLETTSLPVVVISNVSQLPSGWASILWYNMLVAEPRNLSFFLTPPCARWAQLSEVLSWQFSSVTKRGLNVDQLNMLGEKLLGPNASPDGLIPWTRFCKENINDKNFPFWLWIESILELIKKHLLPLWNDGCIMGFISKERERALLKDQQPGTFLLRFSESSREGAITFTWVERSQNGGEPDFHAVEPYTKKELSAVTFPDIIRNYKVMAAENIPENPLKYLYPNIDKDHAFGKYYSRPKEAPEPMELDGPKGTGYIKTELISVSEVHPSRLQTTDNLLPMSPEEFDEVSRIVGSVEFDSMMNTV
Procedure: as §1

[3] = target: the molecule itself; assay: co-IP in 293T cells treated with IFNγ (FIG. 9D)
Procedure: as §1

STAT2 [4] = target: T2, STAT2; assay: co-IP in 293T cells treated with IFNα (FIG. 9D)
Procedure: as §1

STAT1/STAT2 heterodimer [5] = target: T1, STAT1/STAT2 heterodimer; assay: co-IP in 293T cells treated with IFNα (FIG. 9D)
Procedure: as §1

T2 sequence (P52630 whole entry): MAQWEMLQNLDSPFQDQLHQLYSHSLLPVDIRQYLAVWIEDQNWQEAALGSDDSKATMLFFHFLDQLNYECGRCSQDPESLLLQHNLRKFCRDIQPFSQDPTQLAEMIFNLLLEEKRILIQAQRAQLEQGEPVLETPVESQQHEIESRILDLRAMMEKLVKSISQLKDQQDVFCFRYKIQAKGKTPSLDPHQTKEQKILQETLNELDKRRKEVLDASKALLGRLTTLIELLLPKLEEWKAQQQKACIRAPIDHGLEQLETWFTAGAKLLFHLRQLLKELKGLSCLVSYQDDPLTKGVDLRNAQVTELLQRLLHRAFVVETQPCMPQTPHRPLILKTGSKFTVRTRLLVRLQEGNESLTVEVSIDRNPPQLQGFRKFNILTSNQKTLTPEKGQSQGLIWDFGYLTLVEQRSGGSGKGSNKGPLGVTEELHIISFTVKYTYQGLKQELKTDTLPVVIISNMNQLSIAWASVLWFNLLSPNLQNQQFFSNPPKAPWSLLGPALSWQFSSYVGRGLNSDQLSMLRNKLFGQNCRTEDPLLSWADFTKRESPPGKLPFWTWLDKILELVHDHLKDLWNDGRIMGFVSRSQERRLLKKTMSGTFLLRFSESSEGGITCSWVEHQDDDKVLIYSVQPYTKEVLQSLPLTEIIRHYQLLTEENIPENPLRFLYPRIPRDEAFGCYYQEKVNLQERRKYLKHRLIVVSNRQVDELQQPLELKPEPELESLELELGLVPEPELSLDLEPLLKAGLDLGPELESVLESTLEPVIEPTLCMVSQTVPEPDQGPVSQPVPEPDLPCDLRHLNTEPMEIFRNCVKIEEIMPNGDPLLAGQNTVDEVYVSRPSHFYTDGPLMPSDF
T1 sequence (P52630 whole entry, one chain of several): as the sequence (P52630 whole entry) above

B1: FOXA1 (Forkhead box protein A1), wild type (other, human, UniProt P55317 1-472, looked up)
chain: MLGTVKMEGHETSDWNSYYADTQEAYSSVPVSNMNSGLGSMNSMNTYMTMNTMTTSGNMTPASFNMSYANPGLGAGLSPGAVAGMPGGSAGAMNSMTAAGVTAMGTALSPSGMGAMGAQQAASMNGLGPYAAAMNPCMSPMAYAPSNLGRSRAGGGGDAKTFKRSYPHAKPPYSYISLITMAIQQAPSKMLTLSEIYQWIMDLFPYYRQNQQRWQNSIRHSLSFNDCFVKVARSPDKPGKGSYWTLHPDSGNMFENGCYLRRQKRFKCEKQPGAGGGGGSGSGGSGAKGGPESRKDPSGASNPSADSPLHRGVHGKTGQLEGAPAPGPAASPQTLDHSGATATGGASELKTPASSTAPPISSGPGALASVPASHPAHGLAPHESQLHLKGDPHYSFNHPFSINNLMSSSEQQHKLDFKAYEQALQYSPYGSTLPASLPLGSASVTTRSPIEPSALEPAYYQGVYSRPVLNTS
notes: also called FOXA1-WT; WT FOXA1
binding result (STAT1/STAT2 heterodimer [1]): binds | binding result (STAT2 [2]): binds | binding result (STAT1): binds | binding result (STAT1 homodimer): binds

B2
binding result [3]: binds | binding result (STAT2 [4]): binds

B3: IRF9 (other, UniProt Q00978 1-393, looked up)
chain: MASGRARCTRKLRNWVVEQVESGQFPGVCWDDTAKTMFRIPWKHAGKQDFREDQDAAFFKAWAIFKGKYKEGDTGGPAVWKTRLRCALNKSSEFKEVPERGRMDVAEPYKVYQLLPPGIVSGQPGTQKVPSKRQHSSVSSERKEEEDAMQNCTLSPSVLQDSLNNEEEGASGGAVHSDIGSSSSSSSPEPQEVTDTTEAPFQGDQRSLEFLLPPEPDYSLLLTFIYNGRVVGEAQVQSLDCRLVAEPSGSESSMEQVLFPKPGPLEPTQRLLSQLERGILVASNPRGLFVQRLCPIPISWNAPQAPPGPGPHLLPSNECVELFRTAYFCRDLVRYFQGLGPPPKFQVTLNFWEESHGSSHTPQNLITVKMEQAFARYLLEQTPEQQAAILSLV
binding result (STAT1/STAT2 heterodimer [5]): binds
